# PMC7746858
# Biological target: human complement C1q (human)
# Assay: ELISA
substance,measurement,value
"construct HLZ (6D8 heavy and light chains, C-terminal ZE3 fusion, no epitope tag) (antibody)",fold lower C1q binding than HLZd,10 fold
